In patent US20090280543A1, “REGIOSELECTIVE GLYCOSYLATION” (THE UNIVERSITY OF YORK, priority 2005, published 2009):

How the values were obtained:
[1] = D-glucose adsorption by PVPP, HPAEC of samples treated with and without PVPP; type: physicochemical
Experimental: FIG. 8: Lack of D-glucose adsorption by PVPP.
High Performance Anion Exchange Chromatography (HPAEC): HPAEC coupled with integrated amperometric detection (IAD) (Dionex, U.K.) was used to detect D-glucose using a CarboPac™ PA10 column (2×250 mm, Dionex). Seven different monosaccharides including L-Fucose, L-rhamnose, D-galactose, L-arabinose, D-glucose, D-manose and D-xylose were used as references. The D-glucose was separated isocratically at a flow rate 0.35 mL/min with 24 mM NaOH (pH>12.5) over 18 min. The column was then washed with a linear gradient of NaOH from 24 mM to 200 mM over 5 min. The IAD waveform was set following manufacturer's recommendation.
Stage 3, detection: 50 μl of the reaction mix were transferred to a 96-well filtration plate (Abgene, U.K.), mixed with an equal volume of PVPP aqueous suspension (25 g/L), shaken for 1 h at 25° C. before centrifugation (1000 g, 5 min). To each filtrate, 50 mM 2-morpholino-ethanesulfonic acid buffer (MES) (pH 7.0), ABTS™ (0.1 mM), peroxidase (2 U) and glucose oxidase (2 U) were added to a final volume of 125 μl. The formation of the green dye was monitored at 405 nm at 30 min using a plate reader (Bio-Tec Instruments Inc., U.S.A).

[2] = Autohydrolysis of esculin in MES buffer, RP-HPLC; type: physicochemical; settings: 50 mM MES buffer (pH 7.0), 44 h at 25° C.
Experimental: (§1) FIG. 5: Investigation of ecsulin hydrolysis. Neither a) autohydrolysis in MES buffer nor b) hydrolysis in bacterial culture of esculin (12) was detected. Samples at 24 h, 44 h incubation and additionally a standard of the aglycone esculetin (11) are illustrated;
(§2) For these controls, samples were incubated for 44 h at 25° C. as in the standard experimental conditions, and analyzed by RP-HPLC to confirm the lack of aglycone (esculetin, 11) (FIG. S1).

[3] = system: E. coli transformed with pGEX-2T vector; experiment: Hydrolysis of esculin in bacterial culture, RP-HPLC; settings: 44 h at 25° C.
Experimental: as §1, §2

[4] = Whole-cell biocatalysis screen of GT library against the aglycone daidzein (RP-HPLC of glucosides); type: cell-based, E. coli; settings: for regioselectivity for the 7-OH of daidzein: percentage of a regiospecific glucoside in the total amount of monoglucosides formed
Source text: FIG. 3: Screening of a GT-library against the aglycone daidzein. a) The readings at A405 nm for D-glucose detection are presented in a colored code format. b) Examples of RP-HPLC trace of active and non-active GTs in whole-cell biocatalysis are illustrated. c) The regioselectivity of the active GTs towards daidzein, defined by the percentage of a regiospecific glucoside in the total amount of monoglucosides formed;
Reverse-phase HPLC (RP-HPLC): RP-HPLC (Agilent 1100 system with Photodiode Array Detector, Agilent, U.K.) analysis was carried out using a Columbus 5-μ C18 column (150×3.20 mm, Phenomenex, U.K.). Glucosides were separated from their respective aglycones using a linear gradient of acetonitrile/0.1% formic acid (v/v) in H2O: 10-45% (trans-resveratrol/glucosides), 10-50% (daidzein/glucosides) at 0.5 mL/min over 20 min and monitored at 280 nm and 250 nm. Separation of scopoletin/scopolin and esculetin/esculin was carried out using the conditions described previously.^[11]
The cDNA library of 96 Arabidopsis thaliana GTs was subcloned into the multiple cloning site of the glutathione-S-transferase (GST) gene fusion vector pGEX-2T (Amersham Biosciences, U.K.) as described previously^[10] and transformed into the strain E. coli BL21 (DE3) for use in the screening method.
Stage 1, biotransformation: single colonies of the GT library grown on LB-agar plates overnight were transferred to individual wells in a 96-well bacterial culture plate containing 400 μl 2×YT medium (16 g/L bacto tryptone, 10 g/L yeast extract, 5 g/L NaCl) and 50 μg/mL ampicillin. The plate was covered with an adhesive plate seal (Abgene, U.K.) and incubated at 37° C. (250 rpm). The bacterial growth was monitored at 595 nm by a plate reader. After 4 h, the cultures had reached exponential phase. The plate was centrifuged (4000 g, 10 min), the supernatants discarded and cell pellets were resuspended in isopropyl-D-thiogalactopyranoside (0.1 mM), 2-(N-morpholino)ethanesulfonic acid (50 mM, pH 7.0), ampicillin (50 μg/mL), L-arabinose (10 g/L) and 500 µM of aglycone to a total whole-cell reaction volume of 400 μl/well. The 96-well plate was closed with a gas permeable adhesive plate seal, wrapped in alu foil for light protection and incubated at 25° C. (250 rpm). After 44 h the cultures were centrifuged (4000 g, 15 min) and the supernatants analyzed. […]
Stage 3, detection: 50 μl of the reaction mix were transferred to a 96-well filtration plate (Abgene, U.K.), mixed with an equal volume of PVPP aqueous suspension (25 g/L), shaken for 1 h at 25° C. before centrifugation (1000 g, 5 min). […] The formation of the green dye was monitored at 405 nm at 30 min using a plate reader (Bio-Tec Instruments Inc., U.S.A). […]

With `O=C[C@H](O)[C@@H](O)[C@H](O)[C@H](O)CO` [D-glucose] the “loss of D-glucose by filtration through PVPP” value [1] was “no significant loss”.

In the case of `O=c1ccc2cc(O[C@@H]3O[C@H](CO)[C@@H](O)[C@H](O)[C@H]3O)c(O)cc2o1` [esculin, esculetin-6-O-glucoside], the autohydrolysis during incubation [2] is reported as “lack of autohydrolysis” and the “hydrolysis in the presence of the bacterial culture” value [3] is reported as “not hydrolyzed”.

B1: GT 84A1: Arabidopsis thaliana glycosyltransferase, SEQ ID NO: 81 (nucleotide), 130 (amino acid) (protein, listed as Arabidopsis thaliana)
chain: MVFETCPSPNPIHVMLVSFQGQGHVNPLLRLGKLIASKGLLVTFVTTELWGKKMRQANKIVDGELKPVGSGSIRFEFFDEEWAEDDDRRADFSLYIAHLESVGIREVSKLVRRYEEANEPVSCLINNPFIPWVCHVAEEFNIPCAVLWVQSCACFSAYYHYQDGSVSFPTETEPELDVKLPCVPVLKNDEIPSFLHPSSRFTGFRQAILGQFKNLSKSFCVLIDSFDSLEQEVIDYMSSLCPVKTVGPLFKVARTVTSDVSGDICKSTDKCLEWLDSRPKSSVVYISFGTVAYLKQEQIEEIAHGVLKSGLSFLWVIRPPPHDLKVETHVLPQELKESSAKGKGMIVDWCPQEQVLSHPSVACFVTHCGWNSTMESLSSGVPVVCCPQWGDQVTDAVYLIDVFKTGVRLGRGATEERVVPREEVAEKLLEATVGEKAEELRKNALKWKAEAEAAVAPGGSSDKNFREFVEKLGAGVTKTKDNGY
For B1, the “regioselectivity for the 7-OH of daidzein” value (“regioselectivity” for short) [4] was 100%.

B2: GT 73B2: Arabidopsis thaliana glycosyltransferase, SEQ ID NO: 23 (nucleotide), 115 (amino acid) (protein, listed as Arabidopsis thaliana)
chain: MGSDHHHRKLHVMFFPFMAYGHMIPTLDMAKLFSSRGAKSTILTTSLNSKILQKPIDTFKNLNPGLEIDIQIFNFPCVELGLPEGCENVDFFTSNNNDDKNEMIVKFFFSTRFFKDQLEKLLGTTRPDCLIADMFFPWATEAAGKFNVPRLVFHGTGYFSLCAGYCIGVHKPQKRVASSSEPFVIPELPGNIVITEEQIIDGDGESDMGKFMTEVRESEVKSSGVVLNSFYELEHDYADFYKSCVQKRAWHIGPLSVYNRGFEEKAERGKKANIDEAECLKWLDSKKPNSVIYVSFGSVAFFKNEQLFEIAAGLEASGTSFIWVVRKTKDDREEWLPEGFEERVKGKGMIIRGWAPQVLILDHQATGGFVTHCGWNSLLEGVAAGLPMVTWPVGAEQFYNEKLVTQVLRTGVSVGASKHMKVMMGDFISREKVDKAVREVLAGEAAEERRRRAKKLAAMAKAAVEEGGSSFNDLNSFMEEFSS
For B2, the “regioselectivity” value [4] was 100%.

B3: GT 73B1: Arabidopsis thaliana glycosyltransferase, SEQ ID NO: 22 (nucleotide), 114 (amino acid) (protein, listed as Arabidopsis thaliana)
chain: MGTPVEVSKLHFLLFPFMAHGHMIPTLDMAKLFATKGAKSTILTTPLNAKLFFEKPIKSFNQDNPGLEDITIQILNFPCTELGLPDGCENTDFIFSTPDLNVGDLSQKFLLAMKYFEEPLEELLVTMRPDCLVGNMFFPWSTKVAEKFGVPRLVFHGTGYFSLCASHCIRLPKNVATSSEPFVIPDLPGDILITEEQVMETEEESVMGRFMKAIRDSERDSFGVLVNSFYELEQAYSDYFKSFVAKRAWHIGPLSLGNRKFEEKAERGKKASIDEHECLKWLDSKKCDSVIYMAFGTMSSFKNEQLIEIAAGLDMSGHDFVWVVNRKGSQEEKEDWLPEGFEEKTKGKGLIIRGWAPQVLILEHKAIGGFLTHCGWNSLLEGVAAGLPMVTWPVGAEQFYNEKLVTQVLKTGVSVGVKKMMQVVGDFISREKVEGAVREVMVGEERRKRAKELAEMAKNAVKEGGSSDLEVDRLMEELTLVKLQKEKV
With B3 the “regioselectivity” value [4] was 100%.

B4: GT 73C4: Arabidopsis thaliana glycosyltransferase, SEQ ID NO: 30 (nucleotide), 121 (amino acid) (protein, listed as Arabidopsis thaliana)
chain: MASEKSHKVHPPLHFILFPFMAQGHMIPMIDIARLLAQRGATVTIVTTRYNAGRFENVLSRAMESGLPINIVHVNFPYQEFGLPEGKENIDSYDSMELMVPFFQAVNMLEDPVMKLMEEMKPRPSCIISDLLLPYTSKIARKFSIPKIVFHGTGCFNLLCMHVLRRNLEILKNLKSDKDYFLVPSFPDRVEFTKPQVPVETTASGDWKAFLDEMVEAEYTSYGVIVNTFQELEPAYVKDYTKARAGKVWSIGPVSLCNKAGADKAERGNQAAIDQDECLQWLDSKEDGSVLYVCLGSICNLPLSQLKELGLGLEKSQRSFIWVIRGWEKYNELYEWMMESGFEERIKERGLLIKGWSPQVLILSHPSVGGFLTHCGWNSTLEGITSGIPLITWPLFGDQFCNQKLVVQVLKAGVSAGVEEVMKWGEEEKIGVLVDKEGVKKAVEELMGASDDAKERRRRVKELGESAHKAVEEGGSSHSNITYLLQDIMQQVKSKN
In the case of B4, the “daidzein glucosides formed / positions glycosylated” value ([4]; whole-cell biocatalysis, 500 µM aglycone, 44 h, 25° C.) is reported as “produced the diglucoside in addition to the monoglucosides”.
